Legend:
[1] = target: LENG8–PS^M (10×His–MBP–LENG8^491–800, 3×V5–PCID2, SEM1) (human) (UniProt Q96PV6); assay: grating-coupled interferometry; V5-tagged LENG8–PS^M or SAC3D1–PS^M captured on an amine-coupled anti-V5 antibody (Creoptix WAVE, 4PCP chip); UAP56 injected as a 1:2 dilution series from 5 µM, with or without 200 µM 15U RNA, 25 mM HEPES pH 7.9, 50 mM KCl, 1 mM MgCl2, 1 mM TCEP, with and without 1 mM ATP, 25 °C; one-to-one model
[2] = target: SAC3D1–PS^M (10×His–MBP–SAC3D1^48–404, 3×V5–PCID2, SEM1) (human) (UniProt A6NKF1); assay: as above
[3] = target: UAP56 (10×His–3C–UAP56) (UniProt Q13838)
UAP56 (10×His–3C–UAP56), sequence (Q13838 whole entry): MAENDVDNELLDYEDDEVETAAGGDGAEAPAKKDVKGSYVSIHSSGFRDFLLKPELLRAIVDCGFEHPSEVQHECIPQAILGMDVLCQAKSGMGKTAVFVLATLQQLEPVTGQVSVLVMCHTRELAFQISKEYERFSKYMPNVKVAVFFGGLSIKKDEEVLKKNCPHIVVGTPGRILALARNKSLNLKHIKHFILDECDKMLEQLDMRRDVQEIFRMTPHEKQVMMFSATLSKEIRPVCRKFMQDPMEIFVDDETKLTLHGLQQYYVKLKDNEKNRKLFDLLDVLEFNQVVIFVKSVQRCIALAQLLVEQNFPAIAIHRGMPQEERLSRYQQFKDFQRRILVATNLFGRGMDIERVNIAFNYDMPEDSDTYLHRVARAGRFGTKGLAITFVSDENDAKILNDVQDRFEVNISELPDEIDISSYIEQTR

UAP56(Δ1–43) (10×His–3C–UAP56(Δ1–43), residues 44–428), sequence (Q13838 44-428, stated change not applied): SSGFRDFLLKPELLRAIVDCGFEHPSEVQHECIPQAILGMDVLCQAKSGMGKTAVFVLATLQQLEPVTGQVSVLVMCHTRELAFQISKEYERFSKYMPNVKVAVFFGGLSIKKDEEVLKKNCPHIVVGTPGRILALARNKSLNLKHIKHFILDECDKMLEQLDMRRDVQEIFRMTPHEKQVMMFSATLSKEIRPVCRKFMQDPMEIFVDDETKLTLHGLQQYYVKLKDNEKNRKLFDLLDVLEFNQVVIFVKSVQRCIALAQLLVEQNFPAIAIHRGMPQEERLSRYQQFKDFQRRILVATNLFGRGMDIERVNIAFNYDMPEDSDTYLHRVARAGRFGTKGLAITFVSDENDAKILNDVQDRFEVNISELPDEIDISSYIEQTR

Row | Substance | fold reduction of affinity against UAP56 [1] | fold reduction of affinity against UAP56 [2] | fold stimulation of the apparent ATPase rate of UAP56 with RNA and ATP (NADH-coupled assay) [3]
1 | UAP56(Δ1–43) (10×His–3C–UAP56(Δ1–43), residues 44–428) (from UniProt Q13838 44-428) (domain or fragment) | > 30 fold | > 30 fold | 
2 | LENG8–PS^M (10×His–MBP–LENG8^491–800, 3×V5–PCID2, SEM1) (from UniProt Q96PV6 491-800; Q5JVF3 1-399; P60896 1-70) (complex) |  |  | 290 fold
3 | SAC3D1–PS^M (10×His–MBP–SAC3D1^48–404, 3×V5–PCID2, SEM1) (from UniProt A6NKF1 48-404; Q5JVF3 1-399; P60896 1-70) (complex) |  |  | 60 fold

— paper PMC13391367
